Literature values, collected in paper PMC10746204.

Target: IFNAR2 (Homo sapiens) (UniProt P48551)
UniProt P48551, sequence (P48551 27-243): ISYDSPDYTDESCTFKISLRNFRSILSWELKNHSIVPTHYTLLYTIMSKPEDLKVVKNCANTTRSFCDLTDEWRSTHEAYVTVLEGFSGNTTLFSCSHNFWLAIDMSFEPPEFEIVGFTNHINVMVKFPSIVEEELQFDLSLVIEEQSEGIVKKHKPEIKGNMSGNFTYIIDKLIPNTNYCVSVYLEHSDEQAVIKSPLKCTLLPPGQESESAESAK

Kd: 0.7 nM
Substance: IFNα14 (from UniProt P01570)
